# Measurements published in patent publication US20170101466A1 (published 2017).
# B1: 5G10 IgG1 F243A/V264A double mutein expressed in Pichia pastoris (antibody, V domains shown)
# VH: QMQLVQSGAEVKKPGASVKVSCKASGYTFTSYAMHWVRQAPGQRLEWMGWINAGNGNTKYSQKFQGRVTITRDTSASTAYMELSSLRSEDTAVYYCAREMAVAGTYYYYGMDVWGQGTTVTVSS
# VL: DIQLTQSPSTLSASVGDRVTITCRASQSISGWLAWYQQKPGRAPKLLIYKASSLESGVPSRFSGSGSGTDFTLTISSLQPEDIATYYCQQFDNLLLMYTFGQGTKLEIRR
# notes: IgG1 F243A/V264A (EU) double mutein, alpha-2,6-sialylated, from glycoengineered Pichia pastoris; also called 5G10 (D132947)
# B2: 5G10 IgG expressed in HEK293 cells (antibody, V domains shown)
# VH: B1 VH
# VL: B1 VL
# notes: IgG from HEK293-FreeStyle cells
# B3: 1B5 IgG expressed in HEK293 cells (antibody, V domains shown)
# VH: QVQLQESGPGLVEPSETLSLTCTVSGGSISGRNYYWGWIRQSTGKGLEWIGSIYYSGSTYYNPSLKSRVTISVDTSKNQFSLKLSSVTAADTAVYYCARDLANYDILTGYYRARGAFDIWGQGTMVTVSS
# VL: QSALTQPASVSGSPGQSITISCTGTSSDVGGYNYVSWYQQHPGKAPKLMIYDVNKRPSGVPDRFSGSKSANTASLTVSGLQAEDEADYYCSSYTAGGNWVFGGGTKLTVLG
# notes: as for B2
# B4: human TACI (R&D Systems receptor chimera) (receptor, UniProt O14836 2-166, looked up, not shown: a dimerising Fc or GST)
# chain: SGLGRSRRGGRSRVDQEERFPQGLWTGVAMRSCPEEQYWDPLLGTCMSCKTICNHQSQRTCAAFCRSLSCRKEQGKFYDHLLRDCISCASICGQHPKQCAYFCENKLRSPVNLPPELRRQRSGEVENNSDNSGRYQGLEHRGSEASPALPGLKLSADQVALVYST
# notes: also called hTACI; TACI rec Human
# B5: 10B1 IgG expressed in HEK293 cells (antibody, V domains shown)
# VH: EVQLVESGAEVKKPGASVKVSCKASGYTFTSYGISWVRQAPGQGLEWMGWISAYNGNTNYAQKLQGRVTMTTDTSTSTAYMELRSLRSDDTAVYYCARADYDILTGYPRGPVDYWGQGTLVTVSS
# VL: QSALTQPPSASGSPGQSVTISCTGTSSDVGHYNYVSWYQQHPGKAPKLIIFDVSDRPSGVSNRFSGSKSGNTASLTISGLQAEDEANYYCSSYTSRNTLIFGGGTKLTVLG
# notes: as for B2
# B6: 6F5 IgG expressed in HEK293 cells (antibody, V domains shown)
# VH: EVQLVQSGAEVKKPGSSVKVSCKASGGTFSSYAISWVRQAPGQGLEWMGGISAYKGNTNYAQKLQGRVTMTTDTSTSTAYMELRSLRSEDTAVYYCARGRLAEYDILTGYYFNTWAFDIWGQGTMVTVSS
# VL: QSALTQPASVSGSPGQSITISCTGTSSDVGGYNYVSWYQQHPGKAPKLMIYDVSKRPSGVSNRFSGSKSGNTASLTISGLQAEDEADYYCSSYTSSSTPVLFGGGTKLTVLG
# notes: as for B2
# B7: 1D6 IgG expressed in HEK293 cells (antibody, V domains shown)
# VH: QVTLKESGPTLVKPTQTLTLTCTFSGFSLSTDGVGVGWIRQPPGKALEWLALIYGDDDKRYSPSLKSRLTITKDTSKNQVVLTMTNMDPVDTATYYCAHSISNYDILTGHWIAKTYDYWGQGTLVTVSS
# VL: QSALTQPPSASGSPGQSVSISCIGSRSDIGYYNYVSWYQQHPGEAPKLIIFDVSKRPSGVPDRFSGSKSGNTASLTVSGLQPEDEADYYCASYGGRNNLLFGGGTQLTVLG
# notes: as for B2
# B8: 6A11 IgG1 F243A/V264A double mutein expressed in Pichia pastoris (antibody, V domains shown)
# VH: QIQLVQSGTEVKKPGASVKVSCKASGYTFTDYYMHWVRQAPGQGLEWMGRINPNSGGTNYAQKFQGRVTMTRDTSISTAYMELSRLRSDDTFVYYCAREGYDFLTGYTLGGMDVWGQGTTVTVSS
# VL: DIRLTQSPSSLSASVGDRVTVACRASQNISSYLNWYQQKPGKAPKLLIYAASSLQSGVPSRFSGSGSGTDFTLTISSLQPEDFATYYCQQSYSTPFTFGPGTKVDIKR
# notes: IgG1 F243A/V264A (EU) double mutein, alpha-2,6-sialylated, from glycoengineered Pichia pastoris; also called 6A11 (D132943)
# B9: 2C5 IgG expressed in HEK293 cells (antibody, V domains shown)
# VH: QVQLVQSGAEVKKPGASVKVSCKASGYTFTGYYIHWVRQAPGQGLEWMGWINPSSGGTNYAQKFQGRVTMTRDTSASTAFMSLSSLRSEDTAVYYCARSYYDILTGYSRNPFDNWGQGTPVTVSS
# VL: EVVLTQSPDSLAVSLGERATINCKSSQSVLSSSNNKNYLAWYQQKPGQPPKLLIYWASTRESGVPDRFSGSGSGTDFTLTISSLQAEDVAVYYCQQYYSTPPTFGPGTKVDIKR
# notes: as for B2
# Tests used:
# [1] = target: T1, soluble mouse BLyS (mouse, UniProt Q9WU72 127-309); test: Biacore T100, binder captured by anti-human Fc, BLyS injected, 1:1 model
# T1 construct: europium-labelled in DELFIA; also called mBLyS; mouse BAFF (BLyS)
# Experimental: (§1) A Series S CM5 Chip (GE Healthcare) was amine coupled with an anti-human Fc capturing antibody (GE Healthcare Human Fc Kit) to >10,000 RUs. Sample antibodies were diluted in 1×HBS-EP+ running buffer to 0.15 ug/mL and injected for 45 seconds at 10 uL/min. […] Biacore Evaluation software was used to fit the data to a 1:1 Binding Model.
# [2] = target: T1, soluble mouse BLyS; test: ELISA, soluble mBLyS
# [3] = target: T2, soluble human BLyS (human, UniProt Q9Y275 134-285); test: ELISA, soluble hBLyS
# T2 construct: also called hBLyS; human BAFF (BLyS)
# [4] = target: T2, soluble human BLyS; test: blocking of biotinylated soluble hBLyS binding to immobilized mBR3
# [5] = target: T2, soluble human BLyS; test: Biacore T100, binder captured by anti-human Fc, BLyS injected, 1:1 model
# Experimental: as §1
Binder,Kd [1],koff [1],kon [1],IC50 [4],binding result [2],further results
B1,0.732 nM,0.000451 s⁻¹,616000 M⁻¹ s⁻¹,,,
B2,,,,,,IC50 [2]: 51 nM
B3,,,,21 nM,,IC50 [3]: 15 nM; IC50 [2]: 17 nM
B4,0.105 nM,6.5e-05 s⁻¹,621000 M⁻¹ s⁻¹,,,
B5,,,,,no binding,
B6,,,,> 100 nM,,
B7,,,,> 100 nM,no binding,
B8,0.121 nM,0.000177 s⁻¹,1.47e+06 M⁻¹ s⁻¹,,,Kd [5]: 0.905 nM; koff [5]: 0.000174 s⁻¹; kon [5]: 192000 M⁻¹ s⁻¹
B9,,,,> 100 nM,no binding,
